Legend:
CD47 [1] = molecular target: T1, CD47 (human, UniProt Q08722 19-323); test: flow cytometry, bispecific supernatant on SKBR3 WT (CD20-/CD47+) and SKBR3-CD20 cells, without or after pre-block of CD47 with mIgG1 anti-CD47 PerCP-Cy5.5, detection anti-IgA PE, GeoMFI
T1 construct: whole, on cells; also called Cluster of Differentiation 47; human CD47
Method: (§1) After the pre-block the IgA antibodies were applied as described above. Samples were analyzed on a BD Canto II, and data has been analyzed using FlowJo (BD).
Cells were fixed and measured by FACS.

CD20 = molecular target: T2, CD20 (UniProt P11836 1-297, limits assumed); test: flow cytometry, bispecific supernatant on SKBR3-CD20 cells, without or after pre-block of CD47 with m9, detection anti-IgA PE, GeoMFI; SKBR3 WT (CD20-) panel as comparison
T2 construct: whole, on cells
T2 sequence (looked up): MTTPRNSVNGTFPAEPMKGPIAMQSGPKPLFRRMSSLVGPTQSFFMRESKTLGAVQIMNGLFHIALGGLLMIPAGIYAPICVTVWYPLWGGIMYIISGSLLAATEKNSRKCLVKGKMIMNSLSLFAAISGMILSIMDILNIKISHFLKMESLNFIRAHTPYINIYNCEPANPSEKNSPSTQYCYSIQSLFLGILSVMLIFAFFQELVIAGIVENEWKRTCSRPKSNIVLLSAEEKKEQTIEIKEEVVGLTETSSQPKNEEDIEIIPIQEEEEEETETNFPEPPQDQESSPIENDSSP
Method: as §1
Cells were fixed and measured by FACS.

CD47 [2] = molecular target: T1, CD47; test: flow cytometry on human erythrocytes (CD235a+), bispecific supernatant, detection anti-human IgA, % positive cells
Method: A Histopaque/ficoll isolation was performed to separate the erythrocytes from the PMN/PBMC. Plasma, PBMC, ficoll, histopaque and PMN have been discarded. The remaining pellet of erythrocytes were washed in PBS, spun for 5 minutes at 2400 rpm and pellet was resuspended in 5 mL PBS. […] Dilutions are done in FACS buffer (1% BSA in PBS). Incubated for 30 minutes at RT in the dark, excess unbound antibody was washed away with FACS buffer. 40 uL was added in FACS buffer diluted detection antibody (goat F(ab)′2 anti-human IgA-FITC (Southern Biotech; dilution 1:100), incubated for 30 minutes at RT in the dark, excess unbound antibody was washed away with FACS buffer. Samples were fixed by adding 1% PFA to pelleted cells. Measure on Canto II (BD), gating on CD235-positive events.

CD47 [3] = molecular target: T1, CD47; test: flow cytometry on SKBR3 WT cells (CD20-/CD47+), detection anti-IgA PE, GeoMFI
Method: as §1

CD47 [4] = molecular target: T1, CD47; test: flow cytometry on SKBR3 WT cells (CD20-/CD47+), detection anti-IgA PE
Method: as §1

T1 sequence (Q08722 19-323): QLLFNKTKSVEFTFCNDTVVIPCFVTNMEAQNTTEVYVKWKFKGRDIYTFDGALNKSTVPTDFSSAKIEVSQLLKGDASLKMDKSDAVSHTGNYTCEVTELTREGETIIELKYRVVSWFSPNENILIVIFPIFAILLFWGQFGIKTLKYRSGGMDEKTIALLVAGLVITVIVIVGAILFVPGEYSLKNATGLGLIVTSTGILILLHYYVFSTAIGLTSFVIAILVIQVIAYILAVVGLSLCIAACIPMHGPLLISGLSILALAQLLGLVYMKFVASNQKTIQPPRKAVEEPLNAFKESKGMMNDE

Row | Binder | binding result (CD20) | also measured
1 | DVD-IgA bispecific antibody #1 (5A3M5-Obi) (bispecific antibody, Tetravalent homodimer, outer domain CD47 (5A3M5), inner domain CD20 (Obinituzumab)) heavy: not shown light: DIQMTQSPSSLSASVGDRVTITCQASQDINKYLNWYQQKPGKAPKLLIYGASRLETGVPSRFSGSGSGTDFTFTISSLQPEDIATYYCQQKHPRYPRTFGQGTKVEIKSGGGGSDIVMTQTPLSLPVTPGEPASISCRSSKSLLHSNGITYLYWYLQKPGQSPQLLIYQMSNLVSGVPDRFSGSGSGTDFTLKISRVEAEDVGVYYCAQNLELPYTFGGGTKVEIKRTVAAPSVFIFPPSDEQLKSGTASVVCLLNNFYPREAKVQWKVDNALQSGNSQESVTEQDSKDSTYSLSSTLTLSKADYEKHKVYACEVTHQGLSSPVTKSFNRGEC | binds | binding result (CD47 [1]): no binding
2 | DVD-IgA bispecific antibody #2 (Obi-2.3D11) (bispecific antibody, Tetravalent homodimer, outer domain CD20 (Obinituzumab), inner domain CD47 (2.3D11); also called DVD-IgA Obi-2.3D11) heavy: QVQLVQSGAEVKKPGSSVKVSCKASGYAFSYSWINWVRQAPGQGLEWMGRIFPGDGDTDYNGKFKGRVTITADKSTSTAYMELSSLRSEDTAVYYCARNVFDGYWLVYWGQGTLVTVSSSGGGGSQVQLQESGPGLVKPSGTLSLTCAVSGVSIRSINWWNWVRQPPGKGLEWIGEIYHSGSTNYNPSLKSRVTISVDKSKNQFSLKLNSVTAADTAVYYCARDGGIAVTDYYYYGLDVWGQGTTVTVSSASPTSPKVFPLSLDSTPQDGNVVVACLVQGFFPQEPLSVTWSESGQGVTARNFPPSQDASGDLYTTSSQLTLPATQCPDGKSVTCHVKHYTNPSQDVTVPCRVPPPPPCCHPRLSLHRPALEDLLLGSEANLTCTLTGLRDASGATFTWTPSSGKSAVQGPPERDLCGCYSVSSVLPGSAQPWNHGETFTCTAAHPELKTPLTATLSKSGNTFRPEVHLLPPPSEELALNELVTLTCLARGFSPKDVLVRWLQGSQELPREKYLTWASRQEPSQGTTTFAVTSILRVAAEDWKKGDTFSCMVGHEALPLAFTQKTIDRLAGK light: not shown | binds | 
3 | DVD-IgA scFv_HC bispecific antibody #3 (5A3M5-scFv: Obi_HC) (bispecific antibody, Tetravalent homodimer; 5A3M5 (CD47) scFv on the Obinituzumab heavy chain; Tested as raw HEK293F supernatant) heavy: not shown light: DIVMTQTPLSLPVTPGEPASISCRSSKSLLHSNGITYLYWYLQKPGQSPQLLIYQMSNLVSGVPDRFSGSGSGTDFTLKISRVEAEDVGVYYCAQNLELPYTFGGGTKVEIKRTVAAPSVFIFPPSDEQLKSGTASVVCLLNNFYPREAKVQWKVDNALQSGNSQESVTEQDSKDSTYSLSSTLTLSKADYEKHKVYACEVTHQGLSSPVTKSFNRGEC | binds | 
4 | DVD-IgA scFv_HC bispecific antibody #4 (Obi-scFv: 2.3D11_HC) (bispecific antibody, Tetravalent homodimer; Obinituzumab (CD20) scFv on the 2.3D11 heavy chain; Tested as raw HEK293F supernatant; also called bispecific #4) heavy: QVQLVQSGAEVKKPGSSVKVSCKASGYAFSYSWINWVRQAPGQGLEWMGRIFPGDGDTDYNGKFKGRVTITADKSTSTAYMELSSLRSEDTAVYYCARNVFDGYWLVYWGQGTLVTVSSGGGGSGGGGSGGGGSDIVMTQTPLSLPVTPGEPASISCRSSKSLLHSNGITYLYWYLQKPGQSPQLLIYQMSNLVSGVPDRFSGSGSGTDFTLKISRVEAEDVGVYYCAQNLELPYTFGGGTKVEIKSGGGGSQVQLQESGPGLVKPSGTLSLTCAVSGVSIRSINWWNWVRQPPGKGLEWIGEIYHSGSTNYNPSLKSRVTISVDKSKNQFSLKLNSVTAADTAVYYCARDGGIAVTDYYYYGLDVWGQGTTVTVSSASPTSPKVFPLSLDSTPQDGNVVVACLVQGFFPQEPLSVTWSESGQGVTARNFPPSQDASGDLYTTSSQLTLPATQCPDGKSVTCHVKHYTNPSQDVTVPCRVPPPPPCCHPRLSLHRPALEDLLLGSEANLTCTLTGLRDASGATFTWTPSSGKSAVQGPPERDLCGCYSVSSVLPGSAQPWNHGETFTCTAAHPELKTPLTATLSKSGNTFRPEVHLLPPPSEELALNELVTLTCLARGFSPKDVLVRWLQGSQELPREKYLTWASRQEPSQGTTTFAVTSILRVAAEDWKKGDTFSCMVGHEALPLAFTQKTIDRLAGK light: not shown | binds | binding result (CD47 [2]): binds
5 | DVD-IgA scFv_LC bispecific antibody #5 (5A3M5-scFv: Obi_LC) (bispecific antibody, Tetravalent homodimer; 5A3M5 (CD47) scFv on the Obinituzumab light chain) heavy: QVQLVQSGAEVKKPGSSVKVSCKASGYAFSYSWINWVRQAPGQGLEWMGRIFPGDGDTDYNGKFKGRVTITADKSTSTAYMELSSLRSEDTAVYYCARNVFDGYWLVYWGQGTLVTVSSASPTSPKVFPLSLDSTPQDGNVVVACLVQGFFPQEPLSVTWSESGQGVTARNFPPSQDASGDLYTTSSQLTLPATQCPDGKSVTCHVKHYTNPSQDVTVPCRVPPPPPCCHPRLSLHRPALEDLLLGSEANLTCTLTGLRDASGATFTWTPSSGKSAVQGPPERDLCGCYSVSSVLPGSAQPWNHGETFTCTAAHPELKTPLTATLSKSGNTFRPEVHLLPPPSEELALNELVTLTCLARGFSPKDVLVRWLQGSQELPREKYLTWASRQEPSQGTTTFAVTSILRVAAEDWKKGDTFSCMVGHEALPLAFTQKTIDRLAGK light: not shown | binds | 
6 | DVD-IgA scFv_LC bispecific antibody #6 (Obi-scFv: 2.3D11_LC) (bispecific antibody, Tetravalent homodimer; Obinituzumab (CD20) scFv on the 2.3D11 light chain; also called bispecific #6) heavy: QVQLQESGPGLVKPSGTLSLTCAVSGVSIRSINWWNWVRQPPGKGLEWIGEIYHSGSTNYNPSLKSRVTISVDKSKNQFSLKLNSVTAADTAVYYCARDGGIAVTDYYYYGLDVWGQGTTVTVSSASPTSPKVFPLSLDSTPQDGNVVVACLVQGFFPQEPLSVTWSESGQGVTARNFPPSQDASGDLYTTSSQLTLPATQCPDGKSVTCHVKHYTNPSQDVTVPCRVPPPPPCCHPRLSLHRPALEDLLLGSEANLTCTLTGLRDASGATFTWTPSSGKSAVQGPPERDLCGCYSVSSVLPGSAQPWNHGETFTCTAAHPELKTPLTATLSKSGNTFRPEVHLLPPPSEELALNELVTLTCLARGFSPKDVLVRWLQGSQELPREKYLTWASRQEPSQGTTTFAVTSILRVAAEDWKKGDTFSCMVGHEALPLAFTQKTIDRLAGK light: not shown | binds | 
7 | 2.3D11-IgA2 (antibody, V domains shown, May be the same as IgA3.0-2.3D11; also called bivalent monospecific antibody 2.3D11; anti-CD47 antibody 2.3D11) VH: QVQLQESGPGLVKPSGTLSLTCAVSGVSIRSINWWNWVRQPPGKGLEWIGEIYHSGSTNYNPSLKSRVTISVDKSKNQFSLKLNSVTAADTAVYYCARDGGIAVTDYYYYGLDVWGQGTTVTVSS VL: EIVLTQSPATLSLSPGERATLSCRASESVSSNLAWYQQKPGQAPRLLIYGAFNRATGIPARFSGSGSGTDFTLTISSLEPEDFAVYYCQQRSDWFTFGGGTKVEIK |  | binding result (CD47 [3]): binds
8 | Obi-IgA3.0 (antibody, V domains shown, Monospecific anti-CD20 IgA3.0 control; also called IgA3.0-Obi; anti-CD20 Obi antibody) VH: QVQLVQSGAEVKKPGSSVKVSCKASGYAFSYSWINWVRQAPGQGLEWMGRIFPGDGDTDYNGKFKGRVTITADKSTSTAYMELSSLRSEDTAVYYCARNVFDGYWLVYWGQGTLVTVSS VL: DIVMTQTPLSLPVTPGEPASISCRSSKSLLHSNGITYLYWYLQKPGQSPQLLIYQMSNLVSGVPDRFSGSGSGTDFTLKISRVEAEDVGVYYCAQNLELPYTFGGGTKVEIKR |  | binding result (CD47 [4]): no binding (tested: 1 ug/mL (from paragraph 462, not on the sheet))
